{
  "source": "paper PMC13107021",
  "about": "“Structural basis for suramin binding to the C-terminal domain of the SARS-CoV-2 nucleocapsid protein”",
  "binders": {"B1": {"name": "15-nt SARS-CoV-2 genome-derived RNA (ssRNA)", "RNA": "AUAUGGAAGAGCCCUA"}},
  "target": "SARS-CoV-2 N-CTD (nucleocapsid C-terminal domain) (SARS-CoV-2, UniProt P0DTC9 247-364)",
  "test": "BLI; BLI and EMSA: 25 mM sodium phosphate, 50 mM NaCl, pH 6.0; EMSA 25 C, 30 min, 10 uM RNA, 20% native PAGE",
  "details": "protein: recombinant; biotinylated for BLI; 15N-labelled for NMR; chain copies: 2; label: none",
  "data": [
    {"binder": "B1", "values": [
      {"measurement": "Kd", "result": "~10.1", "unit": "µM"}
    ]}
  ]
}
